Results on four sequences are retold here after the supplement of paper PMC5998384.

The subject of data set [1] is HeLa Kyoto. Nature of the data set: solubility change mitosis vs G1/S (difference of NP-40 vs SDS log2 ratios) (log2 ratio difference); higher = more soluble in mitosis.
Data set [2] relates to HeLa Kyoto. Nature of the data set: solubility in G1/S (NP-40 vs SDS abundance) (log2 ratio); higher = more soluble. As to conditions: cell cycle stage: G1/S.
Data set [3] concerns HeLa Kyoto. The experiment in a line: melting temperature (median over replicates), in situ; higher = more thermally stable.
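Wherever melting temperature (median over replicates), in situ is given: HeLa Kyoto cells synchronized by double thymidine or nocodazole block, proteins quantified by TMT10plex mass spectrometry, three independent biological replicates.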
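Wherever solubility change mitosis vs G1/S (difference of NP-40 vs SDS log2 ratios) is given: synchronized HeLa Kyoto cells (double thymidine block for G1/S, nocodazole release for mitosis), protein amounts in NP-40 versus SDS lysates quantified by mass spectrometry, three biological replicates.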
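Wherever solubility in G1/S (NP-40 vs SDS abundance) is given: HeLa Kyoto cells arrested at G1/S by double thymidine block, proteins quantified by TMT10plex mass spectrometry in mild NP-40 versus SDS extracts, three biological replicates.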

As to “MQAALEVTARYCGRELEQYGQCVAAKPESWQRDCHYLKMSIAQCTSSHPIIRQIRQACAQPFEAFEECLRQNEAAVGNCAEHMRRFLQCAEQVQPPRSPATVEAQPLPAS [CHCHD5]”, the “solubility change mitosis (log2)” value with HeLa Kyoto [1] was determined as 0.0671. Besides, the “solubility in G1/S (log2)” value with HeLa Kyoto [2] is -0.11. Further, the melting temperature with HeLa Kyoto [3] (cell cycle stage: G1/S) was 53.5 °C; with HeLa Kyoto [3] (cell cycle stage: mitosis), 50.5 °C.
For the sequence “MQSPAVLVTSRRLQNAHTGLDLTVPQHQEVRGKMMSGHVEYQILVVTRLAAFKSAKHRPEDVVQFLVSKKYSEIEEFYQKLSSRYAAASLPPLPRKVLFVGESDIRERRAVFNEILRCVSKDAELAGSPELLEFLGTRSPGAAGLTSRDSSVLDGTDSQTGNDEEAFDFFEEQDQVAEEGPPVQSLKGEDAEESLEEEEALDPLGIMRSKKPKKHPKVAVKAKPSPRLTIFDEEVDPDEGLFGPGRKLSPQDPSEDVSSVDPLKLFDDPDLGGAIPLGDSLLLPAACESGGPTPSLSHRDASKELFRVEEDLDQILNLGAEPKPKPQLKPKPPVAAKPVIPRKPAVPPKAGPAEAVAGQQKPQEQIQAMDEMDILQYIQDHDTPAQAAPSLF [HS1BP3]”, in the data set with HeLa Kyoto [1], the “solubility change mitosis (log2)” value was found to be 0.119. Also, the “solubility in G1/S (log2)” value in the data set on HeLa Kyoto [2] is 0.292. Further, the melting temperature with HeLa Kyoto [3] (cell cycle stage: G1/S) was determined as 49.7 °C; in the data set on HeLa Kyoto [3] (cell cycle stage: mitosis), 50.5 °C.
Take “MRASLLLSVLRPAGPVAVGISLGFTLSLLSVTWVEEPCGPGPPQPGDSELPPRGNTNAARRPNSVQPGAEREKPGAGEGAGENWEPRVLPYHPAQPGQAAKKAVRTRYISTELGIRQRLLVAVLTSQTTLPTLGVAVNRTLGHRLERVVFLTGARGRRAPPGMAVVTLGEERPIGHLHLALRHLLEQHGDDFDWFFLVPDTTYTEAHGLARLTGHLSLASAAHLYLGRPQDFIGGEPTPGRYCHGGFGVLLSRMLLQQLRPHLEGCRNDIVSARPDEWLGRCILDATGVGCTGDHEGVHYSHLELSPGEPVQEGDPHFRSALTAHPVRDPVHMYQLHKAFARAELERTYQEIQELQWEIQNTSHLAVDGDQAAAWPVGIPAPSRPASRFEVLRWDYFTEQHAFSCADGSPRCPLRGADRADVADVLGTALEELNRRYHPALRLQKQQLVNGYRRFDPARGMEYTLDLQLEALTPQGGRRPLTRRVQLLRPLSRVEILPVPYVTEASRLTVLLPLAAAERDLAPGFLEAFATAALEPGDAAAALTLLLLYEPRQAQRVAHADVFAPVKAHVAELERRFPGARVPWLSVQTAAPSPLRLMDLLSKKHPLDTLFLLAGPDTVLTPDFLNRCRMHAISGWQAFFPMHFQAFHPAVAPPQGPGPPELGRDTGRFDRQAASEACFYNSDYVAARGRLAAASEQEEELLESLDVYELFLHFSSLHVLRAVEPALLQRYRAQTCSARLSEDLYHRCLQSVLEGLGSRTQLAMLLFEQEQGNST [CHPF]”: the “solubility change mitosis (log2)” value in the data set on HeLa Kyoto [1] stood at 0.15. Besides, the “solubility in G1/S (log2)” value in the data set with HeLa Kyoto [2] was -0.013. For the same sequence, the melting temperature amounted to 53.4 °C in the data set with HeLa Kyoto [3] (cell cycle stage: G1/S) and 52 °C in the data set on HeLa Kyoto [3] (cell cycle stage: mitosis).
In the same order, the values of “MRDNTSPISVILVSSGSRGNKLLFRYPFQRSQEHPASQTSKPRSRYAASNTGDHADEQDGDSRFSDVILATILATKSEMCGQKFELKIDNVRFVGHPTLLQHALGQISKTDPSPKREAPTMILFNVVFALRANADPSVINCLHNLSRRIATVLQHEERRCQYLTREAKLILALQDEVSAMADGNEGPQSPFHHILPKCKLARDLKEAYDSLCTSGVVRLHINSWLEVSFCLPHKIHYAASSLIPPEAIERSLKAIRPYHALLLLSDEKSLLGELPIDCSPALVRVIKTTSAVKNLQQLAQDADLALLQVFQLAAHLVYWGKAIIIYPLCENNVYMLSPNASVCLYSPLAEQFSHQFPSHDLPSVLAKFSLPVSLSEFRNPLAPAVQETQLIQMVVWMLQRRLLIQLHTYVCLMASPSEEEPRPREDDVPFTARVGGRSLSTPNALSFGSPTSSDDMTLTSPSMDNSSAELLPSGDSPLNQRMTENLLASLSEHERAAILSVPAAQNPEDLRMFARLLHYFRGRHHLEEIMYNENTRRSQLLMLFDKFRSVLVVTTHEDPVIAVFQALLP [NPRL3]” are 0.129, -0.108, 50.8 °C and 52.5 °C.
